PMC6375729 (Molecular Cell, 2019)
Where no end group is shown, it is not given here.

Legend:
Conditions in all cases: both partners purified
[1] = target: BRD4 second bromodomain (BD2), D334-E460 (human, UniProt O60885-1 334-460); experiment: ITC; peptide in the syringe titrated into protein in the cell; 15 °C; 50 mM HEPES pH 7.5, 150 mM NaCl; single binding site model
[2] = target: BRD4 first bromodomain (BD1), N44-E168 (human, UniProt O60885-1 44-168); experiment: as above
[3] = target: hexa-His-tagged BRD4 extra-terminal domain (BRD4/ET) (human, UniProt O60885-1 589-676); experiment: peptide or protein array; cellulose SPOT peptide arrays probed with hexa-His-tagged BRD4 domains, detected with HRP-conjugated anti-His antibody

Binder	Kd [1]	stoichiometry N [1]	Kd [2]	stoichiometry N [2]	binding result [3]
LTNK(Ac)GHK(Ac)WKQ [DMTF1 K147ac/K150ac peptide]	29.4 ± 1.84 µM	1.1 ± 0.031	70.4 ± 3 µM	0.99 ± 0.061	
RRRK(Ac)RFK(Ac)RHQ [FOXD3 K235ac/K238ac peptide]	7.75 ± 0.12 µM	0.75 ± 0.029	63.6 ± 1.6 µM	0.64 ± 0.026	
PKDKAIKKFVIRNIVEAA (peptide, UniProt P62854 31-48, looked up, RPS26 residues 31-48, motif printed as KFVIK; source: synthesised on cellulose membrane (SPOT)) [RPS26 peptide region, residues 31-48 (SPOT)]					binds
KTGSPEIKLKITKTIQ (peptide, UniProt Q9BZ95 147-162, looked up, source: synthesised on cellulose membrane (SPOT)) [WHSC1L1 peptide, amino acids 147–162 (SPOT)]					binds
IHCK(Ac)AGK(Ac)GRT [PTEN K125ac/K128ac peptide]	44.8 ± 3.03 µM	0.6 ± 0.021	137 ± 16.9 µM	0.81 ± 0.082	
NSNK(Ac)YTK(Ac)SRG [FOXO3 K259ac/K262ac peptide]			158 ± 20.1 µM	0.58 ± 0.385	
HFAK(Ac)ARK(Ac)VPS [FOXN3 K426ac/K429ac peptide]	25.7 ± 1.8 µM	0.59 ± 0.018	37.8 ± 3.61 µM	0.62 ± 0.311	
DGGK(Ac)SGK(Ac)APR [FOXO3 K242ac/K245ac peptide]	44.4 ± 2.89 µM	0.64 ± 0.021	16.4 ± 0.5 µM	0.49 ± 0.005	
